Laboratory results from IntAct's records for PubMed 12502741.

Target: rb_human RB1 (UniProt P06400)
Sequence (P06400 whole entry): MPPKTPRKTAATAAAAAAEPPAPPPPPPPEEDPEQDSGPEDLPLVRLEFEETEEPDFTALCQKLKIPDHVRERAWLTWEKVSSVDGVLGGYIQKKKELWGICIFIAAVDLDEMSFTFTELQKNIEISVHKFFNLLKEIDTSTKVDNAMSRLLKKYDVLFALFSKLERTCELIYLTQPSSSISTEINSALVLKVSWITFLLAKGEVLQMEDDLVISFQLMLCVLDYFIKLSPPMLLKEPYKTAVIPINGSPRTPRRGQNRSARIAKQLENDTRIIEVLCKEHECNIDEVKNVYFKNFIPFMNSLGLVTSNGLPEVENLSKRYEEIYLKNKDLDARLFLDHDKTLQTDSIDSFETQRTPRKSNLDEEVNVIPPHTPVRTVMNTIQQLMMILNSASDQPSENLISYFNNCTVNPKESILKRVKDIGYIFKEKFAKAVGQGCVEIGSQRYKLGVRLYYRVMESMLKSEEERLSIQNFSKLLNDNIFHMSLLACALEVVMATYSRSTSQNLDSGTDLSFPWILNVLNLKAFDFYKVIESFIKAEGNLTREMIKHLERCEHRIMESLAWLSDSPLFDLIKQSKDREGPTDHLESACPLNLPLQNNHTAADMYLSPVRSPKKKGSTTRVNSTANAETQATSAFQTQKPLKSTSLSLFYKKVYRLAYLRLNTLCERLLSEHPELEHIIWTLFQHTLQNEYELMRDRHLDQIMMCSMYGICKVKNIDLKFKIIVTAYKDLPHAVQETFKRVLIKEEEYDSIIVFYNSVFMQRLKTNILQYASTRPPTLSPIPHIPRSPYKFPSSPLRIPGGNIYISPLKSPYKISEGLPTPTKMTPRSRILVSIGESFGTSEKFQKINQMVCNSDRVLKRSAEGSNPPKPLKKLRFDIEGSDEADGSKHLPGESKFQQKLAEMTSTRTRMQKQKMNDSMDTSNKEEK

Transcription factor E2F2 (Homo sapiens), Q14209 G421S, sequence (Q14209 whole entry G421S): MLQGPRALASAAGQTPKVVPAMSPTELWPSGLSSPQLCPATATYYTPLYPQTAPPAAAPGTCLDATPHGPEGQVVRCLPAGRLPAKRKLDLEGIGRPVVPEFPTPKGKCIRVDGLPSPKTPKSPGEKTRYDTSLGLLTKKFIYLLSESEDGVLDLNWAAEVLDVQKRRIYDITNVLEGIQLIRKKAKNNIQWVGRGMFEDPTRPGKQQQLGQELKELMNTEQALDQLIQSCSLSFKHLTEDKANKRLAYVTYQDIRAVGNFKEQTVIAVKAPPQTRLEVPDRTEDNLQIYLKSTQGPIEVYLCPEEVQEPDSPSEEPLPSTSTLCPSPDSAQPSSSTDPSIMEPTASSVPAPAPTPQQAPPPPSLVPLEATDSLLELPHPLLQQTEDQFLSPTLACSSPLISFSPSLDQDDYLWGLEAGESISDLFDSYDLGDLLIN
Transcription factor E2F2 (Homo sapiens), Q14209 E420A, sequence (Q14209 whole entry E420A): as the sequence (Q14209 whole entry G421S) above, with E420A, S421G counted along it

effect of a mutation on the interaction | Substance
decreasing interaction strength | Transcription factor E2F2 (Homo sapiens), Q14209 G421S
decreasing interaction strength | Transcription factor E2F2 (Homo sapiens), Q14209 E420A
